The values below come from article PMC8960804.

In this test the target is RexT, redox-sensing transcriptional regulator of Nostoc (Anabaena) sp. PCC 7120, tag-free, reduced (Nostoc (Anabaena) sp. PCC 7120). Put plainly: SEC; HiLoad 16/600 Superdex 200 pg, 50 mM HEPES pH 7.5, 100 mM NaCl, 5% v/v glycerol, 2 mM DTT.

Consider “RexT, redox-sensing transcriptional regulator of Nostoc (Anabaena) sp. PCC 7120, tag-free, reduced (natural protein)”, for which the stoichiometry N (in general, the number of molecules, sites or subunits per partner or assembly) amounted to 2.
